# From the supplement of paper PMC7125110
# ± gives the standard error. Variants at the floor of the assay were thinned out.
# B1: glmS ribozyme (parent)
# chain: AUAAAAGCGCCAGAACUACAGAAAUGUAGUUGACGAGGAGGAGGUUUAUCGAAUUUUCGGCGGAUGCCUCCAAA
# Variants of: B1
# Experiment: self-cleavage kobs at 2500 uM GlcN6P; higher = faster cleavage; RNA array
# Conditions: with glucosamine-6-phosphate
# Summary of the method: (§1)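 Tiles of sequenced MiSeq chips were imaged over ~14 h at 37 °C. On them, barcoded ribozyme variants had been transcribed in situ by E. coli RNA polymerase and were tracked via a hybridised Cy3 probe while glucosamine-6-phosphate (40 μM to 10 mM) in HEPES/KCl/Mg(OAc)2 buffer flowed in. Per-tile medians, normalised to baseline and to non-cleaving reference variants, were fit to one- or two-exponential decays for kobs, and weighted Michaelis–Menten fits gave kcat and KM.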
row,Variant,self-cleavage kobs at 2500 uM GlcN6P [s⁻¹]
1,AUAAAAGAGCCAGAACUACAGAAAUGUAGUUGACGAGGCGGAGGUUUAUCGAAUUUUCUGCGGCUGCCUCCAAA,< 1e-05
2,AUAAAAGCGCCAGAACUACAGAAAUGUAGUUGACGAGGAGGAAGUUUAUCGAGUUUUCGUCGGAUGCCUUCAAA,< 1e-05
3,AUAAAAGCGCCAGAACUACAGAAAUGUAGUUGACGAGGAGGAGAUUUAUCUAAUUUACGGCGGAUGCCUCCAAA,< 1e-05
4,AUAAAAGCGUCAGAACUACAGAAAUGUAGUUGACGAGGAGGCUGUUUAUCGAAUUUUCGGCGGAUGACUCCAAA,< 1e-05
5,AUAAAAGGGCCAGAACUACAGAAAUGUAGUUGACGAGGAGGAGGUUUAUCGAAUUUUGGGCGGAUGCCUCCAAA,< 1e-05
6,AUAAAAGCGCCGGAACUACAGAAAUGUAGUUGACGAGGAGGAGGUUUAUCGAAUUUUCGGCGAAUGCCUCCAAA,< 1e-05
7,AUAAAAGUGCCAGAACUACAGAAAUGUAGUUGGCGAGGAGGAGGUUUAUCGAAUUUUCGGCGGUUGCCUCCAAA,< 1e-05
8,AUAAAAGCGCCAGCACUACAGAAAUGUAGUCGACGAGGAGGAGGUUUAUCGAAUUUUCGGCGGAAGCCUACAAA,7.72e-05 ± 2.5e-05
9,AUAAAAGCGCCAGAGCUACAGAAAUGUAGUUGACGAGGAGGAGGUUUAUCGAAUUUACGGCGGAUGCAUCCAAA,5.07e-05 ± 1.9e-05
10,AUAAAAUCGCUACAACUACAGAAAUGUAGUUGACGUGGAGGAGGUUUAUCGAAUUAUCGGCGGAUGCCUCCAAA,< 1e-05
11,AUAAAAGCGCCAGAACUACAGAAAUGUAGUUGACGAGGAAGAGGUGUAUCGAAUUUUCGGCGGAUGUCUCCAAA,0.000431 ± 0.0002
12,AUAAAAGCACCAGAACUACAGAAAUGUAGUUGACGUGGAGGAGGUUUAUCGAGUUUUCGGCGGAUGCCUCCAAA,< 1e-05
13,AUAAAAGCGACUGAACUACAGAAAUGUAGUGGACGAGGAGGAGGUCUAUCGAAUUUUCGGCGGAUGCCUCCAAA,< 1e-05
14,AUAAAAGCGCCAGAACUACAGAAAUGUAGUUGACGAGGAGGAGGUUUAUCGAUUUUUCGGCGGAUGACUACAAA,5.59e-05 ± 2.7e-05
15,AUAAAAGCGCCAGAACUACAGAAAUGUAGUUGAGGAGGGGGAGGUUUAUCGAAUUUUCGUCGGAUGCCUCCAAA,< 1e-05
16,AUAAAAGCGCCAGCACUACAGAAAUGUAGUUGACGAGGAGGAGGUUUAUAGAACUUUCGGCGGAUGCCUCCAAA,< 1e-05

row,Variant,self-cleavage kobs at 2500 uM GlcN6P [s⁻¹]
1,AUAAAAGCGCCAGAACUACAGAAAUGUAGUUGACGAGGAGGACGUUUAUCGAAUUAUCGGCAGAUGCCUCCAAA,< 1e-05
2,AUAAAAGAGCCAUAACUACAGAAAUGUAGUUGACGAGGAGGAGGUUUAUCGAGUUUUCGGCGGAGGCCUCCAAA,< 1e-05
3,AUAAAAGCGCCAGAAUUACAGAAAUGUAGUUGGCGAGGAGGAGGUUUAUCGAAUUUUCGGCGGAUGCCAGCAAA,7.7e-05 ± 3.3e-05
4,AUAAAAGCGCCAGAACUACAGAAAUGUAGUUGACGAGAAGGAUGUUUGUCGAAUUUUGGGCGGAUGCCUCCAAA,< 1e-05
5,AUAAAAGCGCCGGAACUACAGAAAUGUAGUUGACGAGGAGGAGGUUUGUCGAAUCUGCGGCGGAUGCCUCCAAA,< 1e-05
6,AUAAAAGCGCCUGAACUACAGAAAUGUAGUUGACGAGGGGGAGGUUUAUCGAAUCUUCGGCGGAUGCCUCCAAA,0.0482 ± 0.021
7,AUAAAAGCCCCAGAACUACAGAAAUGUAGUUGACGAGGAUGAGGUUUAUCUUAUUUUCGGCGGAUGCCUCCAAA,< 1e-05
8,AUAAAAGCGCCAGAACUACAGAAAUGUAGUUGACGAGGAGGAGGUCUAUCGCAUUUUCGUUGGAUGCCUCCAAA,< 1e-05
9,AUAAAAUCGCCAGAACUACAGAAAUGUAGUUGACGAGGAGGAGUUUUAUCGAUUUUUCGGCGGAUGCCUCCAAA,< 1e-05
10,AUAAAAGCGCCAGAACUACAGAAAUGUAGUUGACGAGGAGGAACUUUAUCGAAGUUUCGGCGGAUGCCUCCAAA,< 1e-05
11,AUAAAAGCGCCACAACUACAGAAAUGUAGUUGACGGGGAGGAGGUUUAUCGAAUUUUCGGCGGUUGCCUGCAAA,< 1e-05
12,AUAAAAGCCUCAGAACUACAGAAAUGUAGUUGACGUGGAGGAGGUUUUUCGAAUUUUCGGCGGAUGCCUCGAAA,< 1e-05
13,AUAAAAGCGCCUGACCUACAGAAAUGUAGUUGACGAGGAGGAGUUUUAUCGAAUUUUCGGCGGAUGCCUCCAAA,4.81e-05 ± 1.7e-05
14,AUAAAAGCGCCAGAACUACAGAAAUGUAGUUGGCGUGGAGGAGGUUUAUCGAAUUUUCGGCGGAGGCCUCCAAA,< 1e-05
15,AUAAAAGCGUCGGAGCUACAGAAAUGUACUUGAAGAGGAGGAGGUUUAUCGAAUUUUCGGCGGAUGCCUCCAAA,< 1e-05
16,AUAAAGGCGCCAGAACUACAGAAAUGUAGUUGACGAGAAGGAGGUUUAUGGAAUUUGCGGCGGAUGCUUCCAAA,8.04e-05 ± 1.4e-05

# Variants of: B1
# Experiment: self-cleavage kobs at 10000 uM GlcN6P; higher = faster cleavage; RNA array
# Conditions: with glucosamine-6-phosphate
# Summary of the method: as §1
row,Variant,self-cleavage kobs at 10000 uM GlcN6P [s⁻¹]
1,AUAAAAGCGCCAGAACUACAGAAAUGUAGUUGACGAGGAGGAGAUUUAUCUAAUUUACGGCGGAUGCCUCCAAA,< 1e-05
2,AUAAAAGCGUCAGAACUACAGAAAUGUAGUUGACGAGGAGGCUGUUUAUCGAAUUUUCGGCGGAUGACUCCAAA,< 1e-05
3,AUAAAAGCGCCGGAACUACAGAAAUGUAGUUGACGAGGAGGAGGUUUAUCGAAUUUUCGGCGAAUGCCUCCAAA,< 1e-05
4,AUAAAAGCGCCAGAACUACAGAAAUGUAGUUGACGAGGAGGAGGUCUAUCGCAUUUUCGUUGGAUGCCUCCAAA,< 1e-05
5,AUAAAAGCCUCAGAACUACAGAAAUGUAGUUGACGUGGAGGAGGUUUUUCGAAUUUUCGGCGGAUGCCUCGAAA,< 1e-05
